In US20250002576A1 one finds EC50 data, which are given here for one molecule.

For the experiment, the target named is human Claudin 18.2 (human) (UniProt P56856). Briefly: flow cytometry, antibody dilution series on hCLDN18.2-expressing MiaPaCa-2 cells. On the technique in general: A flow cytometer gives signals particle by particle.

Usually EC50 stands for the concentration giving half of the maximal effect. Lower therefore signals higher potency in that assay.

B1: YU577-E08 (antibody, V domains shown)
VH: QVQLVQSGAEVKKPGASVKVSCKASGYTFTSYYMHWVRQAPGQGLEWMGIINPSGGSTSYAQKFQGRVTMTRDTSTSTVYMELSSLRSEDTAVYYCATRQFDYWGQGTLVTVSS
VL: QSVLTQPPSVSAAPGQKVTISCSGSSSNIGNNYVSWYQQLPGTAPKLLIYENNKRPSGIPDRFSGSKSGTSATLGITGLQTGDEADYYCGTWDSSLSAAVFGGGTKVTVL
With B1, the EC50 was 7.2 nM.
